Experimental data as given in patent US20240059770A1.

Biological target: human glucose-dependent insulinotrophic polypeptide (GIP) (human)
Experiment: sandwich immunoassay (MSD ECL): C-Terminal Antibody as capture, ruthenium-labelled N-Terminal Antibody as detection

Sequence of human glucose-dependent insulinotrophic polypeptide (GIP) (human) (peptide, as listed by the source): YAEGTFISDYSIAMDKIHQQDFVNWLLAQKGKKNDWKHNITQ

percent cross-reactivity (ECL against human oxyntomodulin (53-89), blank subtracted): 0.12%
B1: Anti-Human Oxyntomodulin N-Terminal Antibody (antibody, V domains shown)
VH: QIQLVQSGPELKKPGETVKISCKASGYTFTDYAFSWVKQAPGKGLKWMGWITTNTGEATYADDFKGRFAFSLETSASTAYLQISNLKNEDTATYFCARETEYGDSSWFGHWGQGTLVTVSA
VL: DIVLTQSPASLAVSLGQRATISCRASESVDGWGNSFMHWYQQKPGQPPKLLIYLATYRVAGIPARFSGSGSRTDFTLTINPVEADDVATYYCMQSSEDPYTFGGGTKLEIKR
